Measurements reported in patent US12161729B2, “Methods and compositions for visualizing a ureter in a surgical procedure” (ALUME BIOSCIENCES, INC., priority 2021, dated 2024).
Read-outs that look alike come from different tables or passages of the source. Residues, ends and D or L forms follow the SMILES beside them. *: point of attachment. 5FAM = O=C1OC2(c3ccc(O)cc3Oc3cc(O)ccc32)c2ccc(C(=O)*)cc21; FAM = carboxyfluorescein

What was measured:
ureter [1] = assay: Time course of ureter illumination in rodent models; type: in vivo; details: rodent model
Experimental: (§1) A rodent model was to use to evaluate the dynamics of fluorescent visualization of 5-FAM-QVPWEEPYYVVKKSSGG-NH2 (HNP401-N-2 with GG linker; SEQ ID NO:747) following intravenous administration. The conjugate was administered in a wide range of amounts and fluorescence was detected using a customized microscope. […] Rather it reflects fluorescence of urine flowing down the ureter from the kidney to the bladder.
These include molecules consisting of related HNP401 peptides conjugated to FAM, as well as molecules consisting of related HNP401 peptides conjugated to other fluorescent moieties. In addition, the studies presented here allow concurrent visualization of nerves in conjunction with ureters.

ureter [2] = assay: Fluorescent visualization of the ureter after intravenous administration, mouse model; type: in vivo
Experimental: FIG. 1: Bright field and fluorescence overlay image of a ureter in a living wild type mouse following intravenous administration of about 2000 nanomoles of a fluorescent conjugate (SEQ ID NO:747). Images were obtained 2 hours following administration using a customized fluorescence detection microscope. Left panel: White reflectance image. Right panel: fluorescence overlay.
as §1

[3] = Bioanalysis of fluorescent conjugate in the urine of surgery patients (LC-MS/MS); type: in vivo, human; details: for Test Drug (ng/mL) in urine / level at 30 min after infusion: 500 mg intravenous; for level at 30 min after infusion: human, urine, iv, 500 mg, read-out: Test Drug (ng/mL) in urine
Experimental: Urine samples were collected 30 minutes before intravenous administration of 500 mg of parent test drug (corresponding to the fluorescent-conjugated peptide, SEQ ID NO:747), 30 minutes after infusion prior to head and neck surgery, and 22 hours later. The concentration of intact parent test drug was determined by liquid chromatography with tandem mass spectrometry (LC-MS/MS) using a qualified bioanalytical method. Also evaluated was the presence of metabolites M3-M8 (initially identified from in vitro studies) corresponding to shortened versions of the parent peptide conjugated to the fluorescent moiety.

[4] = tested on: rat sciatic and prostate nerves; details: several hours after intravenous administration; cited from earlier work
[5] = tested on: human resected nerve tissues; details: human tissue, topical administration; cited from earlier work
[6] = in vivo; cited from earlier work
[7] = tested on: rodent resected nerve tissues; details: rodent tissue, topical administration; cited from earlier work
nerve = details: cited from earlier work; for nerve detection following intravenous administration: rodent models

Row | Compound | time at which fluorescent visualization of the ureter was first observed following conjugate administration (ureter [1]; early observation) | time up to which fluorescent visualization of the ureter was observed following conjugate administration (ureter [1]; extended time course) | ureter illumination (fluorescence) (ureter [2]; 2 hours following intravenous administration of about 2000 nanomoles (~200 mg/kg)) | ureter illumination (fluorescence) (ureter [2]; intravenous, 100 nanomoles to 2000 nanomoles (~10 mg/kg to ~200 mg/kg)) | detection in urine, number of subjects ([3]; 30-minute time-point, test drug or fluorescent metabolites, five subjects evaluated) | Test Drug (ng/mL) in urine ([3]; Subject 1, 30 min after infusion) | Test Drug (ng/mL) in urine ([3]; Subject 2, 22 hours) | Test Drug (ng/mL) in urine ([3]; Subject 3, 22 hours) | Test Drug (ng/mL) in urine ([3]; Subject 4, 30 min after infusion) | level at 30 min after infusion ([3]; Subject 2, 30 min after infusion) | level at 30 min after infusion ([3]; Subject 3, 30 min after infusion) | level at 30 min after infusion ([3]; Subject 5, 30 min after infusion) | fluorescence in rat sciatic and prostate nerves [4] | fluorescent labeling of resected nerve tissues [5] | half-life in the blood [6] | fluorescent labeling of resected nerve tissues [7] | nerve detection following intravenous administration (nerve) | serum half-life (as measured by serum fluorescence) [6] | half-life of nerve fluorescence (nerve; in vivo) | persistence of fluorescence in tissues (nerve; in vivo)
1 | CC(C)[C@H](NC(=O)[C@H](Cc1ccc(O)cc1)NC(=O)[C@H](Cc1ccc(O)cc1)NC(=O)[C@@H]1CCCN1C(=O)[C@H](CCC(=O)O)NC(=O)[C@H](CCC(=O)O)NC(=O)[C@H](Cc1c[nH]c2ccccc12)NC(=O)[C@@H]1CCCN1C(=O)[C@@H](NC(=O)[C@H](CCC(N)=O)NC(=O)c1ccc2c(c1)C(=O)OC21c2ccc(O)cc2Oc2cc(O)ccc21)C(C)C)C(=O)N[C@H](C(=O)N[C@@H](CCCCN)C(=O)N[C@@H](CCCCN)C(=O)N[C@@H](CO)C(=O)N[C@@H](CO)C(=O)NCC(=O)NCC(N)=O)C(C)C [SEQ ID NO:747, 5-FAM-QVPWEEPYYVVKKSSGG-NH2] (5FAM-QVPWEEPYYVVKKSSGG-NH2) | less than 1 hour | at least 6 hours | readily illuminated | revealed ureter illumination | detected in four of five subjects | BQL* (BQL: Below Quantitation Limit (10 ng/ml)) | BQL (BQL: Below Quantitation Limit (10 ng/ml)) | BQL (BQL: Below Quantitation Limit (10 ng/ml)) | BQL (BQL: Below Quantitation Limit (10 ng/ml)) | 11.5 ng/mL | 19 ng/mL | 10.1 ng/mL | – | – | – | – | – | – | – | –
2 | FAM-HNP401: FAM conjugated to the C-terminal cysteine of acetylated HNP401 with GCC linker (Ac-SGQVPWEEPYYVVKKSSGGC-CONH2) (Ac-SGQVPWEEPYYVVKKSSGGC(FAM)-NH2) | – | – | – | – | – | – | – | – | – | – | – | – | observed | fluorescent labeling | 15 min | fluorescent labeling | sensitive nerve detection | – | – | –
3 | FAM-NP41: carboxyfluorescein (FAM) coupled to the C-terminal lysine of acetylated NP41 (Ac-SHSNTQTLAKAPEHTGK) via a lysinamide linkage (Ac-SHSNTQTLAKAPEHTGK(FAM)-NH2) [reference compound] | – | – | – | – | – | – | – | – | – | – | – | – | – | fluorescent labeling | – | fluorescent labeling | sensitive nerve detection | about ten | about 50 minutes | persist at a low level in tissues for hours
